Data from patent US20240174992A1, “SPLIT MODIFIED DEHALOGENASE VARIANTS” (Promega Corporation, priority 2022, published 2024).
Changes are numbered by the printed parent chain. In names and notes the source's numbering stands.

B1: HaloTag[22-297](M2F): large HaloTag fragment, positions 22-297 with M to F substitution at second position (protein)
chain: MFHYVDVGPRDGTPVLFLHGNPTSSYVWRNIIPHVAPTHRCIAPDLIGMGKSDKPDLGYFFDDHVRFMDAFIEALGLEEVVLVIHDWGSALGFHWAKRNPERVKGIAFMEFIRPIPTWDEWPEFARETFQAFRTTDVGRKLIIDQNVFIEGTLPMGVVRPLTEVEMDHYREPFLNPVDREPLWRFPNELPIAGEPANIVALVEEYMDWLHQSPVPKLLFWGTPGVLIPPAEAARLAKSLPNCKAVDIGPGLNLLQEDNPDLIGSEIARWLSTLEISG
B2: HaloTag[22-297](Q145H+P154R): variant of the LgHT, positions 22-297 with HaloTag9 mutations (protein)
chain: B1 chain with F2M, Q145H, P154R

Tests used:
[1] = tested on: synthetic HaloTag[3-19] peptide; test: Complementation of large HaloTag fragment in E. coli lysates with synthetic HaloTag[3-19] peptide, JF646; assay type: binding; conditions: for Kd: synthetic HaloTag[3-19] peptide titration up to 1 mM, estimated from saturation of fluorescence signal, read-out: affinity between the split HaloTag fragments
Description: FIG. 30. Complementation of HaloTag[22-297](M2F) fragment in E. coli lysates using a synthetic HaloTag[3-19] peptide. […] Reactions were incubated for 2 hours at room temperature and then labeled with 50 nM JF646 HaloTag ligand prior to fluorescence detection.
FIG. 31. Complementation of HaloTag[22-297](Q145H+P154R) fragment in E. coli lysates using a synthetic HaloTag[3-19] peptide. […] Reactions were incubated for 2 hours at room temperature and then labeled with 50 nM JF646 HaloTag ligand prior to fluorescence detection.

[2] = target: T1, BRD4:Histone H3.3 interaction (Homo sapiens, UniProt O60885); test: Live cell imaging of the BRD4:Histone H3 interaction with split HaloTag in HeLa cells; assay type: cell-based; conditions: second experiment, lower laser intensity
T1 construct: HaloTag[3-19]; expressed in transfected cells; host or cells: HeLa cells
Description: The Imaging data were collected in the far-red channel (Ex. 637 nm) and the green channel (Ex. 488 nm).
The imaging data were collected in the far-red channel (Ex. 637 nm) and the green channel (Ex. 488 nm). * DIC: Differential Interference Contrast.
The imaging data were collected in the far-red channel (Ex. 637 nm) and the green channel (Ex. 488 nm).
Each dot represents the intensity of an imaged cell. CellProfiler software is used for analysis. The horizontal line in each set indicates the median of the data.
Each dot represents the intensity of an imaged cell. CellProfiler software is used for this analysis. The horizontal line is indicative of the median of the data.
A second set of imaging experiments was performed to confirm reproducibility and show improvement of the system's signal-to-background ratio by changing a few confocal microscope settings, such as lower gain and laser intensity (FIG. 132).
The purpose of the second experiment (FIG. 131-134) with lower signal intensity was to see if most of the background signal could be eliminated with the cost of the overall reduction in the specific signal in the far-red channel.

[3] = tested on: HeLa cells; test: Live cell confocal imaging of split HaloTag in the FRB/FKBP model system in HeLa cells; assay type: cell-based; conditions: for signal-to-background ratio, complemented split HaloTag over labeling the large HaloTag alone: presence of Rapamycin; for S:B ratio in +rapamycin/−rapamycin conditions: with HaloTag[3-19] fragment, JF646 imaging
Description: (§1) FIG. 105. Live cell imaging of split HaloTag activity in mammalian cells using a model protein interaction system showing dependence on interaction facilitation for labeling. HeLa cells transiently transfected with plasmids expressing both EGFP-FKBP-HaloTag[3-19] and HaloTag[22-297](Q145H+P154R)-FRB were imaged in +/−Rapamycin conditions; in +Rapamycin condition cells were incubated with 1 micromolar Rapamycin overnight at 37° C. Prior to imaging by confocal microscopy, cells were labeled with 100 nM JF646 HaloTag ligand for 30 minutes at 37° C. The Imaging data were collected in the Far-red channel (Ex. 637 nm, left) and the green channel (Ex. 488 nm, right).
(§2) FIG. 106. Quantitation of live cell imaging of split HaloTag activity in mammalian cells using a model protein interaction system. HeLa cells transiently transfected with plasmids expressing both EGFP-FKBP-HaloTag[3-19] and HaloTag[22-297](Q145H+P154R)-FRB were imaged in +/−Rapamycin conditions; in +Rapamycin condition cells were incubated with 1 micromolar Rapamycin overnight at 37° C. Prior to imaging by confocal microscopy, cells were labeled with 100 nM JF646 HaloTag ligand for 30 minutes at 37° C. Comparison of the fluorescence intensity of non-complemented vs. complemented split HaloTag in +/−RAP conditions in the far-red channel, respectively.
as §1, with “107.” for “105.”, “HaloTag[22-297](M2F)-FRB” for “HaloTag[22-297](Q145H+P154R)-FRB”
as §2, with “FIG. 108. Quantitation of” for “FIG. 106. Quantitation of”, “EGFP-FKBP-HaloTag[3-19] and HaloTag[22-297](M2F)-FRB were imaged” for “EGFP-FKBP-HaloTag[3-19] and HaloTag[22-297](Q145H+P154R)-FRB were imaged”, “minutes at Comparison of” for “minutes at 37° C. Comparison of”
FIG. 109. […] Each dot represents the intensity of an imaged cell as quantitated using CellProfiler software.
FIG. 115. Live cell imaging of split HaloTag activity in mammalian cells. HeLa cells transiently transfected with plasmids expressing both EGFP-FKBP-HaloTag[3-19] and HaloTag[22-297](Q145H+P154R)-FRB were imaged in +Rapamycin condition, 1 micromolar Rapamycin overnight incubation at 37° C. Prior to imaging by confocal microscopy, cells were labeled with 100 nM JF646 HaloTag ligand for 30 minutes at 37° C. The Imaging data were collected in the Far-red channel (Ex. 637 nm, bottom) and the green channel (Ex. 488 nm, top).
FIG. 116. Live cell imaging of split HaloTag activity in mammalian cells. HeLa cells transiently transfected with plasmids expressing both EGFP-FKBP-HaloTag[3-19] and HaloTag[22-297](Q145H+P154R)-FRB were imaged in and −Rapamycin condition. […]

[4] = target: T2, BRD4:Histone H3 interaction (Homo sapiens, UniProt O60885); test: Single live cell time-lapse imaging after JQ1 addition (SmHaloTag dissociation); assay type: cell-based; conditions: 20 micromolar JQ1, up to about 5 hours, ligand-bound
T2 construct: HaloTag[3-19]; expressed in transfected cells; host or cells: HeLa cells
Description: FIG. 139. Quantitation of single live cell time-lapse imaging of inhibition of the BRD4:Histone H3 interaction using split HaloTag fluorescence. […] The intensity of a single cell in both the green and the far-red channel plus its occupied area was tracked over this period.
Measurement of the fluorescence intensity of Split HaloTag after the dissociation of the Small HaloTag peptide, HaloTag[3-19], was tested. After the separation of the SmHaloTag, the Large HaloTag, HaloTag[22-297](M2F), is still covalently bound to the ligand but does the Small HaloTag dissociation affect the ligand fluorogenicity/activity? Time-lapse live cell imaging was performed to address this question. To ensure the tracked cell was viable during the experiment, the area occupied by that specific cell was measured at all time points.

[5] = Complementation of N-terminal split HaloTag constructs in E. coli lysates, Janelia Fluor ligand fluorescence; assay type: biochemical; conditions: 500 nM Rapamycin, 50 nM JF646
Description: FIG. 21A-B. Comparison of complementation activity of N-terminal split HaloTag constructs. Each HaloTag fragment was expressed separately in E. coli and then combined after lysis. The smaller N-terminal HaloTag fragments as FKBP fusions were tested against the larger fragments of FIG. 21A HT(23-297)-FRB or FIG. 21B HT(22-297)-FRB. To each reaction, 500 nM Rapamycin was added and incubated at room temperature for 2.5 hours prior to addition of 50 nM JF646 ligand and measurement of fluorescence at the indicated timepoint.
FIG. 22. Comparison of truncations of N-terminal split HaloTag constructs. Each HaloTag fragment was expressed separately in E. coli and then combined after lysis. […] To each reaction, 500 nM Rapamycin was added and incubated at room temperature for 2 hours prior to addition of 50 nM JF646 ligand and measurement of fluorescence at the indicated timepoint.
FIG. 25A-B. Mutations in N-terminal split HaloTag fragments improve fluorescence intensity and fold response. […] To each reaction, 500 nM Rapamycin was added and incubated at room temperature for 2 hours prior to addition of 50 nM JF646 ligand and measurement of fluorescence at the indicated timepoint. FIG. 25A Fluorescence intensity is shown for +Rapamycin condition to show the overall system brightness relative to FIG. 25B Fold response following Rapamycin addition. […]

[6] = Kinetic labeling assay with TMR ligand, fluorescence polarization, synthetic peptide complementation; assay type: biochemical, E. coli; conditions: 10 nM TMR ligand
Description: FIG. 32. Complementation of HaloTag[22-297](M2F) fragments using a synthetic HaloTag[3-19] peptide in a kinetic labeling assay.
A different HaloTag ligand (TMR) and fluorescence polarization assay format can be used to measure complementation with synthetic peptides (FIG. 32). […] At high peptide concentrations, the complementation with the peptide results in greater labeling rates.
The LgHT variant, HaloTag[22-297](Q145H+P154R), was also tested with the HaloTag ligand (TMR) in the fluorescence polarization assay format to measure complementation with synthetic peptides (FIG. 33). The relative kinetic rate of labeling is higher for this mutant without peptide due to its greater intrinsic stability and expression in E. coli lysates.

[7] = tested on: HeLa cells; test: Lytic TMR assay of large HaloTag fragment expression in HeLa cells; assay type: cell-based; conditions: complemented and non-complemented forms
Description: FIG. 124. Comparing the expression of HaloTag[22-297](Q145H+P154R) and HaloTag[22-297](M2F) when complemented with the small HaloTag fragment in mammalian cells. 50 ul of HeLa cells lysate that was transiently transfected with plasmids expressing EGFP-FKBP-HaloTag[3-19], HaloTag[22-297](Q145H+P154R)-FRB or HaloTag[22-297](M2F)-FRB plasmids and were incubated with 500 nM Rapamycin at room temperature for 2 hours to induce HaloTag fragments complementation. TMR HaloTag ligand at 2 micromolar was added to all wells and incubated at room temperature in the dark overnight prior to resolution by SDS-PAGE and fluorescence detection.
Experiments were conducted during development of embodiments herein to compare the expression of HaloTag[22-297](Q145H+P154R) vs. HaloTag[22-297](M2F) as complemented with the small HaloTag fragment HaloTag[3-19] and non-complemented form in mammalian cells (FIG. 124).

[8] = compared with HaloTag[22-297](M2F)

Molecule | Kd [1] [nM] | S:B ratio, background from labeling the large HaloTag [2] | signal-to-background ratio, complemented split HaloTag over labeling the large HaloTag alone [3] | S:B ratio in +rapamycin/−rapamycin conditions [3] | change in cell intensity upon SmHaloTag dissociation [4] | effect of mutation in the HT(22-297) large fragment on system performance [5] | apparent affinity for the peptide (saturates fluorescence intensity at higher peptide concentrations) | lowest peptide concentration with measurable fold response (synthetic HaloTag[3-19] peptide) | complemented signal [1, 8] | fold response [1, 8] | response to Rapamycin ([3]; HaloTag[3-19] fusion plus variant LgHT fusion, 1 micromolar Rapamycin, 100 nM JF646) [fold] | labeling rate in the presence of peptide [6] | expression in mammalian cells [7]
B1 | > 100000 | 12 | 16 | about 6.7 | reduces almost by half | improve the fold response |  |  |  |  |  |  | 
B2 | ~1000 |  | 5.7 | about 4 |  | significantly enhanced the labeling speed | higher apparent affinity for the peptide | mid-nanomolar range | higher complemented signal | lower fold response | 25 | faster labeling rates relative to the HaloTag[22-297](M2F) mutant | expressed better than HaloTag[22-297](M2F)
